According to publication PMC5007465, “Cullin3-KLHL15 ubiquitin ligase mediates CtIP protein turnover to fine-tune DNA-end resection” (Nature Communications, 2016):
Where no end group is shown, it is not given here.

Biological target: T1, MBP-KLHL15-His (human, UniProt Q96M94 1-604)
T1 construct: KLHL15, human; gene amplified from the pCMV6-KLHL15 vector and subcloned into the pFB-MBP-fusion plasmid; In the pull-downs MBP was kept (coupled to amylose beads); MBP was cleaved only for the protein purified further; also called recombinant MBP-KLHL15; recombinant KLHL15 purified from insect cells; not shown: MBP, N-terminal, kept
T1 sequence (looked up): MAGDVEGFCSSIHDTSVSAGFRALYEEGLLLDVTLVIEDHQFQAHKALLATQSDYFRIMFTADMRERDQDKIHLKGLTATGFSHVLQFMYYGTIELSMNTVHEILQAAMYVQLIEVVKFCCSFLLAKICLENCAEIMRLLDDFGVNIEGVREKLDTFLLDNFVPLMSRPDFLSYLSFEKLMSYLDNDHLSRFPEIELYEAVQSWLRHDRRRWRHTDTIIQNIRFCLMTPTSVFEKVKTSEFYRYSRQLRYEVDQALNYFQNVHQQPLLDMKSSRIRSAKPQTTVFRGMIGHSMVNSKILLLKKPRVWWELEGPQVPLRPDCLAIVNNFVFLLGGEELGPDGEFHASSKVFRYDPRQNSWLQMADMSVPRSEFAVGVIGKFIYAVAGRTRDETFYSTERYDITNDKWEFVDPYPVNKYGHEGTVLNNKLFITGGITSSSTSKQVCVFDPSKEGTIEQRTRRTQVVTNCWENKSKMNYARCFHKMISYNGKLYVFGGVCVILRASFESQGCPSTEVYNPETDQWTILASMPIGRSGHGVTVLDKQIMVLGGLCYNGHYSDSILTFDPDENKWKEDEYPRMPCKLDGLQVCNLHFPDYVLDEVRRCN
Assay: pull-down; competition: CtIP 15-mer peptide added in the indicated amounts to MBP-KLHL15 on amylose beads with HEK293T lysate
Details: both partners purified

- binding result: binds
B1: biotinylated 15-mer peptide encompassing CtIP amino acid residues 830–844 (peptide, UniProt Q99708 830-844, looked up)
peptide: KKLASCSRHRFRYIP
modifications: also: biotinylated (position not given here)
notes: CtIP, human, residues 830-844 in the CTD; also called CtIP peptide; CtIP 15-mer peptide; source: synthetic peptide, bought: Bachem AG
